Laboratory results reported in patent US20220195015A1 (published 2022).

The binders below were run against SARS-CoV-2 RBD (wild type) (SARS-CoV-2, UniProt P0DTC2 319-539) (assay: ELISA on coated RBD).

Row | Binder | EC50
1 | C521 (antibody, V domains shown) VH: EVQLVESGGGLVRPGGSLTLSCVASGFTVGSNFMSWVRQAPGKGLEWVSLIYNSGGTHYADSVKGRFTISRDRSKNTLYLQMNSLRAEDTAIYYCANHGYYYYMDVWGKGTTVTVS VL: QSALTQPASVSGSPGQSITISCTGTGSDIGAYNYVSWHQHHPGKAPKLIIYDVSNRPSGVSNRFSGSKSGNTASLTISGLQAEDEADYYCTSYTNTTTPWVFGGGTKVTVL | 6.9 ng/mL
2 | C094 (antibody, V domains shown) VH: QVQLQESGPGLVKPSETLSLTCNVSGVSISTDYWSWIRQPPGKGLEWIGYIYYSGNTKDYNPSLKSRVTISVDTSKNQFSLMLSSVTAADTAVYYCARHYDILTSLSWFDPWGQGTLVTVSS VL: QSVLTQPPSVSAAPGQKVTISCSITNSNLGNIYVSWYQQLPGTAPKLLIYGNNKRPSGIPDRFSGSKSGTSATLGITGLQTGDEAHYYCGTWDSSLSANWVFGGGTKLTVL | 1.67 ng/mL
3 | C035 (antibody, V domains shown) VH: EVQLVESGGGLVQPGGSLRLSCAASGFIFSSYWMTWVRQAPGKGLEWVASIKYNGNERNYVDSVKGRFTISRDNARNSLFLQLNNLGAEDTAVYYCARQPESTIWYYFDYWGQGTLVTVSS VL: SYELTQPPSVSVSPGQTARVTCSGHALPDQYTYWYQQRPGRAPVLVIYVNNQRPSGIPDRFSATTSGTTVTLTISGVQAEDEADYYCQSADSSGSYVVFGGGTKLTVL | 15.2 ng/mL
4 | C073 (antibody, V domains shown) VH: QLQLQESGPGLVKPSETLSLTCTVSGASIPSSTSYWGWIRQPPGKGLEWIGSIYYTGSTYYNPSLKSRVTISVDTSKNHFSLILSSVTAADTAVYYCARRSITLAGRDCLDFWGQGTLVTVSS VL: DIQLTQSPSSLSASVGDRLTITCRASQSITTSLNWYQQKPGKAPKLLIYAASSLQSGVPSRFSGSGSGTDFTLAISSLQPEDFATYYCQQSYIPLLTFGGGTKVDIK | 20.6 ng/mL
5 | C080 (antibody, V domains shown) VH: EVQLVQSGAEVKKPGESLNISCKASGYSFTIYWIAWVRQLPGKGLEWMGIIYPGDSDTRYSPSFQGQVTISADKSISTAYLQWRSLKASDSAVYYCARGVAVDWYFDLWGRGTLVTVSS VL: QSVLTQPPSVSGAPGQRVTISCAGSSSNIGAGFDVYWYQQLPGTAPKLLIYGNNNRPSGVPDRFSGSKSGTSASLAITGLQAEDEADYYCQSSGSVLSDLYVFGTGTKVTVL | 1.97 ng/mL
6 | C213 (antibody, V domains shown) VH: EVQLVESGGGLVKPGGSLRLSCAASGFTFSSYSMNWVRQAPGKGLEWVSSISSSSSYIYYADSVKGRFTISRDNAKNSLYLQMNSLRAEDTAVYYCARVQVGARGWVDYWGQGTLVTVSS VL: NFMLTQPHSVSESPGKTVTISCTRSSGSIASNYVQWYQQRPGSAPTTVIYEDNERPSGVPDRFSGSIDSSSNSASLTISGLKTEDEADYYCQSYDRINWVFGGGTKLTVL | 2.02 ng/mL
7 | C217 (antibody, V domains shown) VH: EVQLVESGGGLVKPGGSLRLSCAASGFTFSSYSMNWVRQAPGKGLEWVSFISSRSSYIYYADSVKGRFTISRDNAKNSLYLQMNSLRAEDTAVYYCARVQVGARGWVDYWGQGTLVTVSS VL: NFMLTQPHSVSESPGKTVTISCTRSSGSIASNYVQWYQQRPGSAPTTVIYEDNQRPSGVPDRFSGSIDSSSNSASLTISGLKTEDEADYYCQSYDSINWVFGGGTKLTVL | 2.28 ng/mL
8 | C564 (antibody, V domains shown) VH: EVQLLESGGGLVQPGTSLRLSCAASGFTFSSYAMSWVRQAPGKGLEWVSAISSSGGSTYYADSVKGRFTISRDNSKNTLYLHMNSLRAEDTAVYYCATERIAVAGTRMYNWFDPWGQGTLVTVSS VL: DIQMTQSPSSLSASVGDRVTLTCRASQSISSYLNWYQQKPGKAPNLLIYAASSLQSGVPSRFSGSGSGTDFTLTISSLQPEDFATYYCQQSYSAPPWTFGQGTKVEIK | 14.6 ng/mL
9 | C077 (antibody, V domains shown) VH: QVQLVQSGAEVKKPGASVKVSCKASGYTFTSYAMHWVRQAPGQRLEWMGWINTDNGNTKYSQKFQGRVTITRDTSASTAYMELSSLRSEDTAVYYCAREGALTNWFDPWGQGTLVTVSS VL: SYELTQPPSVSVAPGQTARIPCGGNNIGSKSVHWYQQKPGQAPVLVVYDDSDRPSGIPERFSGSNSGNTATLTISRVEAGDEADYYCQVWDSSSDLHVVFGGGTKLTVL | 45.9 ng/mL
10 | C563 (antibody, V domains shown) VH: EVQLVESGGGLVKPGGSLRLSCAASGFPFTNAWMSWVRQAPGKGLEWVGHIKDYTDGGTTDYAAPVKGKFTISRDDSKNTLYLHMNSLKTEDTAVYYCSTVGSYYYDSRGPTSDAFDIWGQGTLVTVSS VL: not shown | 1.19 ng/mL
11 | C091 (antibody, V domains shown) VH: QVQLVQSGAEVKKPGSSVKVSCKASGGTFSSYTISWVRQAPGQGLEWMGRIIPILGIANYAQKFQGRVTITADKSTSTAYMELSSLRSEDTAVYYCARDSGYSGYGSTYYMDVWGKGTTVTVSS VL: QSVLTQPPSVSGAPGQRVTISCTGSSSNIGAGYDVHWYQQLPGTAPKLLIYGNSNRPSGVPDRFSGSKSGTSASLAITGLQAEDEADYYCQSYDSSLSGSVFGTVTKVTVL | 89.5 ng/mL
12 | C092 (antibody, V domains shown) VH: QVQLVQSGAEVKKPGSSVKVSCKASGGSFTNHFISWVRQAPGQGLEWMGRIIPILGTANYAQNFQGRVMMTADKSTSTAYMELSSLRSEDTAVYYCARDSGYSGYGSTYYMDVWGKGTTVTVSS VL: QSVLTQPPSVSGAPGQRVTISCTGSNSNIGAGYDVHWYQQLPGAAPKLLIYGNNNRPSGVPDRFSGSKSDTSASLAITGLQVEDEADYYCQSYDSSLSDSVFGSGTKVTVL | 7.07 ng/mL

Each binder was assayed against SARS-CoV-2 spike receptor binding domain (RBD), S protein residues 319-539 (SARS-CoV-2, UniProt P0DTC2 319-539) (assay: ELISA on coated RBD).

Row | Binder | EC50
13 | C540 (antibody, V domains shown) VH: EVQLVESGGGLVQPGGSLRLSCAASGFTFRNYDMHWVRQVAGKGLEWVSAIGTSGDTYYPDSVKGRFTISRENAKNSVYLQMNNLRAGDTAVYFCVRDREISGWTGWYFDLWGRGTLVTVSS VL: DIQMTQSPSSLSASVGDRVTITCRASQTIHNYLNWYQQIPGKAPRLLIYATNTLQSGVPSRFSGSGSGTDFTLTITGLQPEDFATYYCQQSYSTPPITFGQGTRLEIK | 2.9 ng/mL
14 | C539 (antibody, V domains shown) VH: EVQLVESGGGLVQPGRSLRLSCAASGFTFDDYALHWVRQAPGKGLEWVSGISWNGDSIGYADSVKGRFTISRDNAKNSLSLQMNSLTAEDTALYYCAKGVEYSSSSNCDYWGQGTLVTVSS VL: DIQMTQSPSSVSASVGDRVTITCRASQDISSWLAWYQQKPGKAPKLLISLASGLQSGVPSRFSGSGSETDFTLTISSLQPEDFATYYCQQTNSFPLTFGGGTKVEI | 1.3 ng/mL
15 | C547 (antibody, V domains shown) VH: QVQLVESGGGVVQPGRSLRLSCAASGFTFSSYGMHWVRQAPGKGLEWVAVISYDGSNKYYADSVKGRFTISRDNSKNTLYLQMNSLRAEDTAVYYCAKDTPGGDDILTGWGLYGMDVWGQGTTVTVSS VL: not shown | 1.78 ng/mL
16 | C543 (antibody, V domains shown) VH: QVQLVESGGGVVQPGRSLRLSCTASGFTFSTAGMHWVRQAPGKGLEWVAVISYDGSNKDYADSVKGRFTISRDNSKSTLYLQMNSLRPEDTAVYYCAKDTPGGDDIMTGWGLYGMDVWGQGTTVTVSS VL: DIQMTQSPSSLSASVGDRVTITCRASQSISSYLNWYHQKPGKAPKLLIYAAISLQSGVPSRFSGSGFGTDFTLTISSLQPEDFAIYYCQQSYSTPWTFGQGTKVEIK | 1.28 ng/mL
